Experiments:
[1] = target: T1, purified recombinant mouse ectoLRP4 His-tag (R&D Systems) (mouse, UniProt Q8VI56 21-1725); test: SPR; same ColQ-Flag surface; single-cycle kinetics with purified ectoLRP4-His at 296, 444, 666, 1000 and 1500 nM, 5 μl/min, 3 min association, 5 min dissociation, no regeneration; HBS-EP; 1:1 binding model with drifting baseline; n = 2; conditions: one partner purified
T1 construct: low-density lipoprotein receptor-related protein 4, mouse, ectodomain; also called purified ectoLRP4; source: bought: R&D Systems
T1 sequence (Q8VI56 21-1725): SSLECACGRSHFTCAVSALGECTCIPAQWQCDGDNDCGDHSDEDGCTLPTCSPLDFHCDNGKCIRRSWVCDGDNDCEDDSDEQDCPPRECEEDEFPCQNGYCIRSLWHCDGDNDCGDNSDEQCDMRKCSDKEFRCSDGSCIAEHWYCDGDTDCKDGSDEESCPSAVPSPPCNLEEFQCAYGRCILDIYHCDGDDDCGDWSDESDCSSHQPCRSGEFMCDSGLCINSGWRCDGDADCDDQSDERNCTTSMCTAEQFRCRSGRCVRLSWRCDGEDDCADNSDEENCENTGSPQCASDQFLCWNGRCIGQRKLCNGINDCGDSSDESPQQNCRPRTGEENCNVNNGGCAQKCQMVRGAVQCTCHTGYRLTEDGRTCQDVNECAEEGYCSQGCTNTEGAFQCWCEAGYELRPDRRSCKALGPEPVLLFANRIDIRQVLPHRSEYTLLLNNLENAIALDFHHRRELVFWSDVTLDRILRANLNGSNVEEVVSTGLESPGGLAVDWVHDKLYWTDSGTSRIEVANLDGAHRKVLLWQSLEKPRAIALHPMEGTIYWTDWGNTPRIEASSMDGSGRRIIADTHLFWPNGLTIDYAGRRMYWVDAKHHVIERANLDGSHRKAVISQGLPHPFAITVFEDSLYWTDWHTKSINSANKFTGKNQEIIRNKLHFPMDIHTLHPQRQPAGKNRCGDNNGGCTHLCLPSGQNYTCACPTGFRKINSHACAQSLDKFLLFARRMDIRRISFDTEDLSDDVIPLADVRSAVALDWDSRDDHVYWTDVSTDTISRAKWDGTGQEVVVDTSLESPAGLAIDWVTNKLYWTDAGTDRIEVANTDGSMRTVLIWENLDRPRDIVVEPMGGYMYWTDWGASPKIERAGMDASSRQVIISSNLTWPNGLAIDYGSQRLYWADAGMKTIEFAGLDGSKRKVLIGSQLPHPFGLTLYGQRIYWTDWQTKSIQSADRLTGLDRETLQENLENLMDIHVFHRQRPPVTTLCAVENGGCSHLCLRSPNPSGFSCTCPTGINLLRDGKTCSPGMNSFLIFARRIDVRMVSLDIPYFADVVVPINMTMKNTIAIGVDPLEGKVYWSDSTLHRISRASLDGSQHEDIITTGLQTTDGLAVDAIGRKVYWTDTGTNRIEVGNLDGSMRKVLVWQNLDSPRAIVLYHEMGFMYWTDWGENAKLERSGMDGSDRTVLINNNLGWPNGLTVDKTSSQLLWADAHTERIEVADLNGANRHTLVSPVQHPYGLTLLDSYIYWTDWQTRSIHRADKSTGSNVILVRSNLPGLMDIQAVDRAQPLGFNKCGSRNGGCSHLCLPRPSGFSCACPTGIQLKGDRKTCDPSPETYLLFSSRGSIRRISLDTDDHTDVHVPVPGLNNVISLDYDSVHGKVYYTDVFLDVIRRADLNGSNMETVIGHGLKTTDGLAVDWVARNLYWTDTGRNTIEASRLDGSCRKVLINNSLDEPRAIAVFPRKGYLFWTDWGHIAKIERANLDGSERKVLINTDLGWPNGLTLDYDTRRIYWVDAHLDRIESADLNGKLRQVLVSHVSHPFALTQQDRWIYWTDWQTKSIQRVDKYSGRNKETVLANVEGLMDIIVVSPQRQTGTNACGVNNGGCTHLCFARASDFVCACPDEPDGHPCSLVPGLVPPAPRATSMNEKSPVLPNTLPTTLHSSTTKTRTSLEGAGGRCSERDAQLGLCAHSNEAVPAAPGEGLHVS

[2] = target: the molecule itself; test: co-sedimentation; extracts (0.8 M NaCl, 1% CHAPS) of HEK 293T cells cotransfected with ColQ-Flag and AChE, run on 5 to 20% sucrose gradients with 0.8 M NaCl, 10 mM EDTA, 0.2% Brij-97; fractions assayed for AChE activity; profile not shown

B1: ColQ-Flag (rat collagen Q, ColQ1a, with a Flag epitope after amino acid 26) (natural protein, UniProt O35167 23-458, looked up)
chain: QPTFINSVLPISAALPGLDQKKRGNHKACCLLMPPPPPLFPPPFFRGSRSPLLSPDMKNLLELEASPSPCMQGSLGSPGPPGPQGPPGLPGKAGPKGEKGDLGRPGRKGRPGPPGVPGEPGPVGWPGPEGPRGEKGDVGMMGLPGSRGPMGSKGFPGSRGEKGSRGERGDLGPKGEKGFPGFPGMLGQKGEMGPKGESGIAGHRGPTGRPGKRGKQGQKGDSGIMGPPGKPGPSGQPGRQGPPGPPGPPSAGQLVMGLKGERGFPGPPGRCLCGPPANVNNPSYGDPMYGRGSPRVPAIFVVNNQEELEKLNTQNAIAFRRDQRSLYFKDSLGWLPIQLTPFYPVGLHHKAAWHLCGDGVLQPGEECDDGNPDVSDGCIDCHRAYCGDGYRHRGVEDCDGSDFGYLKCETYLPGSYGELRCTQYCSIDSTPCRYFT
notes: Never purified on its own, only immunocaptured from lysates; source: captured from the lysate on anti-Flag beads, wells or sensor chip; not shown: Flag, internal (after residue 26), kept
[1]
  Kd: 94 nM
  koff: 0.0091 s⁻¹
  kon: 96400 M⁻¹ s⁻¹
[2]
  stoichiometry N: 3

From article PMC10382678, “The collagen ColQ binds to LRP4 and regulates the activation of the Muscle-Specific Kinase–LRP4 receptor complex by agrin at the neuromuscular junction” (The Journal of Biological Chemistry, 2023)
